Source: paper PMC8244865, “Recruitment of phospholipase Cγ1 to the non-structural membrane protein pK15 of Kaposi Sarcoma-associated herpesvirus promotes its Src-dependent phosphorylation” (PLoS Pathogens, 2021)

Legend:
Type in all cases: binding
[1] = test system: PLCγ1 SA and PLCγ1 tSH2, cSH2 R^694L mutant; assay: AlphaLISA, SA and tSH2 R694L mutant; conditions: phosphorylated; 300 nM each protein
Experimental: (§1) Fig 4 The PLCγ1 cSH2 domain is required for the binding of PLCγ1 to phosphorylated pK15 in vitro and may serve as a dominant-negative inhibitor. GST-fused pK15 cytoplasmic tail WT (A), or its truncated mutant N2 [51] (B), were phosphorylated in vitro by 2xStrep-Src and an AlphaLISA was performed with the indicated His-tagged fragments of PLCγ1. Mean and standard deviation from at least two independent experiments with two technical replicates each are depicted. GST fusion proteins of the N1 (C) or N2 (D) truncation mutants of the pK15 cytoplasmic tail were phosphorylated in vitro by 2xStrep-Src and their interaction with recombinant purified PLCγ1 tSH2 (tandem SH2) or SA (γ-specific array) domains was measured by AlphaLISA in the presence of increasing concentrations (300 nM, 600 nM, 900 nM, 1200 nM) of the purified PLCγ1 cSH2. […] After 48h lysates were collected and analysed by Western blot using an antibody to PLCγ1 pY^783 to assess the level of PLCγ1 phosphorylation. (F) The intensities of the pPLCγ1 bands shown in panel E were quantified by densitometry, normalized to the values obtained with the empty vector (EV) in the presence of pK15, and plotted as relative values. […]
(§2) His-tagged PLCγ1 (SA, tSH2 or the isolated SH2 domains) was incubated at room temperature with GST-tagged K15P or its mutants for 1 hour. […] Emission at 615 nm was detected on BioTek Synergy 2 plate reader.

[2] = test system: PLCγ1 (transfected and endogenous, HEK-293T lysates); assay: GST-pulldown, full length PLCγ1; conditions: in vitro phosphorylated by Src; transfected and endogenous PLCγ1, HEK 293 lysates; Western blot
Experimental: Fig 2 K15 phosphorylation results in a stronger binding to PLCγ1. (A) An expression plasmid for an S-tagged full length PLCγ1 or the empty vector (EV) were transfected in HEK-293T cells. After 30h cells were lysed and a GST-pulldown assay was performed with GST-fused pK15 CT (WT), the pK15 CT Y^481F mutant (Y^481F) or GST that had been bound to glutathione beads and previously phosphorylated by GST-6xHis Src (+) or left unphosphorylated (-). Bound proteins were analysed by WB using antibodies to the S tag on PLCγ1 and pTyr. (B) Untransfected HEK-293T cells were lysed and a GST-pulldown assay with pre-phosphorylated (+) or unphosphorylated (-) GST-fused pK15 CT WT/Y^481F or GST was performed and analysed by WB as in (A). (C) An expression plasmid for an S-tagged PLCγ1 SA or the empty vector were transfected in HEK-293T cells. […]
HEK293T cells were washed once with cold PBS 30 hours after transfection, lysed in IP buffer (50 mM Tris pH7.6, 60 mM NaCl, 6.25 mM EDTA, 1% (v/v) glycerol, 0.04% (v/v) NP-40) on ice for 30 minutes, sonicated shortly and cleared by centrifugation for 10 minutes at 20.000g, 4°C. […] Beads were then washed 5 times in 500 μl IP buffer (or for purified proteins IP buffer with 200 mM NaCl), suspended in 10 μl of 5x Laemmli sample buffer (60 mM Tris pH6.8, 24% (v/v) glycerol, 2% (v/v) SDS, 5% (v/v) β-mercaptoethanol, 0.01% Bromphenol Blue) and analysed by western blot.

[3] = test system: PLCγ1 SA and PLCγ1 tSH2, nSH2 R^586L mutant; assay: AlphaLISA, SA and tSH2 R586L mutant; conditions: phosphorylated; 300 nM each protein; versus wt PLCγ1 SA and tSH2
Experimental: as §1, §2

PLCγ1 nSH2 domain = assay: AlphaLISA, isolated PLCγ1 nSH2; conditions: phosphorylated; 300 nM each protein; domain tested individually
Experimental: as §1, §2

B1: pK15 CT^WT: pK15 cytoplasmic tail fused to GST at its N-terminal end, phosphorylated in vitro by Src (protein)
chain: SQLLNEVELQEVNRDPPNVFGYASILVSGAEESREPSPQPDQSGMSILRVDGGSAFRIDTAQAATQPTDDLYEEVLFPRN
modifications: tyrosine-phosphorylated in vitro by Src; sites not stated for this construct; left off: GST, N-terminal, kept
[1]
  interaction (AlphaLISA): markedly reduced binding
[2]
  interaction with PLCγ1 (GST-pulldown): substantial increase in its interaction with PLCγ1
[3]
  interaction (AlphaLISA): to a similar extent as wt PLCγ1 SA and PLCγ1 tSH2
PLCγ1 nSH2 domain
  interaction (AlphaLISA): not the nSH2 domain
